Reference: article PMC3899018, “Biochemical and Structural Studies of Conserved Maf Proteins Revealed Nucleotide Pyrophosphatases with a Preference for Modified Nucleotides” (Chemistry & Biology, 2013)

Assays:
Assay in all cases: pyrophosphatase-coupled Pi release assay
[1] = substrate: Nc1ccn([C@@H]2O[C@H](COP(=O)(O)OP(=O)(O)OP(=O)(O)O)[C@@H](O)[C@H]2O)c(=O)n1; format: biochemical, Bacillus subtilis; details: 2 mM Co2+, 30°C
Text: (§1) pyrophosphatase-coupled Pi release assay on BSU28050

[2] = substrate: Cc1cn([C@@H]2O[C@H](COP(=O)(O)OP(=O)(O)OP(=O)(O)O)[C@@H](O)[C@H]2O)c(=O)nc1N; format: biochemical, Bacillus subtilis; details: 2 mM Co2+, 30°C
Text: as §1

[3] = substrate: Cc1cn([C@@H]2O[C@H](COP(=O)(O)OP(=O)(O)OP(=O)(O)O)[C@@H](O)[C@H]2O)c(=O)[nH]c1=O; format: biochemical, Bacillus subtilis; details: 2 mM Co2+, 30°C
Text: as §1

[4] = substrate: O=c1[nH]cc([C@@H]2O[C@H](COP(=O)(O)OP(=O)(O)OP(=O)(O)O)[C@@H](O)[C@H]2O)c(=O)[nH]1; format: biochemical, Bacillus subtilis; details: 2 mM Co2+, 30°C
Text: as §1

[5] = substrate: Cc1cn([C@@H]2O[C@H](COP(=O)(O)OP(=O)(O)OP(=O)(O)O)[C@@H](O)[C@H]2O)c(=O)[nH]c1=O; format: biochemical, Saccharomyces cerevisiae; details: 2 mM Co2+, 30°C
Text: (§2) pyrophosphatase-coupled Pi release assay on YOR111W

[6] = substrate: O=c1[nH]cc([C@@H]2O[C@H](COP(=O)(O)OP(=O)(O)OP(=O)(O)O)[C@@H](O)[C@H]2O)c(=O)[nH]1; format: biochemical, Saccharomyces cerevisiae; details: 2 mM Co2+, 30°C
Text: as §2

[7] = substrate: O=c1ccn([C@@H]2O[C@H](COP(=O)(O)OP(=O)(O)OP(=O)(O)O)[C@@H](O)[C@H]2O)c(=O)[nH]1; format: biochemical, Saccharomyces cerevisiae; details: 2 mM Co2+, 30°C
Text: as §2

[8] = substrate: C[n+]1cn([C@@H]2O[C@H](COP(=O)(O)OP(=O)(O)OP(=O)(O)O)[C@@H](O)[C@H]2O)c2nc(N)[nH]c(=O)c21; format: biochemical, Salmonella enterica; details: 2 mM Co2+, 37°C
Text: pyrophosphatase-coupled Pi release assay on STM1189

[9] = substrate: Nc1ccn([C@@H]2O[C@H](COP(=O)(O)OP(=O)(O)OP(=O)(O)O)[C@@H](O)[C@H]2O)c(=O)n1; format: biochemical, Homo sapiens; details: 2 mM Co2+, 37°C
Text: (§3) pyrophosphatase-coupled Pi release assay on ASMTL-Maf

[10] = substrate: Cc1cn([C@@H]2O[C@H](COP(=O)(O)OP(=O)(O)OP(=O)(O)O)[C@@H](O)[C@H]2O)c(=O)[nH]c1=O; format: biochemical, Homo sapiens; details: 2 mM Co2+, 37°C
Text: as §3

[11] = substrate: CNc1ccn([C@H]2C[C@H](O)[C@@H](COP(=O)(O)OP(=O)(O)OP(=O)(O)O)O2)c(=O)n1; format: biochemical, Homo sapiens; details: 2 mM Co2+, 37°C
Text: as §3

[12] = substrate: Nc1nc2c([nH]c(=O)n2[C@@H]2O[C@H](CO[P@@](=O)(O)O[P@@](=O)(O)OP(=O)(O)O)[C@@H](O)[C@H]2O)c(=O)[nH]1; format: biochemical, Homo sapiens; details: 2 mM Co2+, 37°C
Text: as §3

[13] = substrate: C[n+]1cn([C@@H]2O[C@H](COP(=O)(O)OP(=O)(O)OP(=O)(O)O)[C@@H](O)[C@H]2O)c2nc(N)[nH]c(=O)c21; format: biochemical, Escherichia coli; details: 2 mM Co2+, 37°C
Text: pyrophosphatase-coupled Pi release assay on YceF

[14] = substrate: Cc1cn([C@@H]2O[C@H](COP(=O)(O)OP(=O)(O)OP(=O)(O)O)[C@@H](O)[C@H]2O)c(=O)nc1N; format: biochemical, Escherichia coli; details: 2 mM Co2+, 37°C
Text: (§4) pyrophosphatase-coupled Pi release assay on YhdE

[15] = substrate: Cc1cn([C@@H]2O[C@H](COP(=O)(O)OP(=O)(O)OP(=O)(O)O)[C@@H](O)[C@H]2O)c(=O)[nH]c1=O; format: biochemical, Escherichia coli; details: 2 mM Co2+, 37°C
Text: as §4

[16] = substrate: Cc1cn([C@H]2C[C@H](O)[C@@H](COP(=O)(O)OP(=O)(O)OP(=O)(O)O)O2)c(=O)[nH]c1=O; format: biochemical, Escherichia coli; details: 2 mM Co2+, 37°C
Text: as §4

[17] = substrate: O=c1[nH]cc([C@@H]2O[C@H](COP(=O)(O)OP(=O)(O)OP(=O)(O)O)[C@@H](O)[C@H]2O)c(=O)[nH]1; format: biochemical, Escherichia coli; details: 2 mM Co2+, 37°C
Text: as §4

B1: BSU28050 (Bacillus subtilis subsp. subtilis str. 168) (protein)
chain: MTKPLILASQSPRRKELLDLLQLPYSIIVSEVEEKLNRNFSPEENVQWLAKQKAKAVADLHPHAIVIGADTMVCLDGECLGKPQDQEEAASMLRRLSGRSHSVITAVSIQAENHSETFYDKTEVAFWSLSEEEIWTYIETKEPMDKAGAYGIQGRGALFVKKIDGDYYSVMGLPISKTMRALRHFDIRA
notes: full-length recombinant, expressed in E. coli; dimer
Km [1]: 25.0 ± 0.8 µM | kcat [1]: 7.1 ± 0.1 s⁻¹ | kcat/Km [1]: 280000 M⁻¹ s⁻¹ | Km [2]: 7.8 ± 0.2 µM | kcat [2]: 8.5 ± 0.1 s⁻¹ | kcat/Km [2]: 1.1e+06 M⁻¹ s⁻¹ | Km [3]: 4.7 ± 0.2 µM | kcat [3]: 2.4 ± 0.1 s⁻¹ | kcat/Km [3]: 510000 M⁻¹ s⁻¹ | Km [4]: 5.7 ± 0.3 µM | kcat [4]: 7.2 ± 0.2 s⁻¹ | kcat/Km [4]: 1.3e+06 M⁻¹ s⁻¹

B2: YOR111W (Saccharomyces cerevisiae S288C) (protein)
chain: MSGNSQLPPDVIGFICSKYDIILASTSPRRYEILHDIMGITDLKTMVSTFEENLDKMNYSTDPIGYVCDTSWHKAQNIIEILTDYEDENPNEIDKPKLIICADTIIIDKSGRIYEKPKTKEVQKKFLMKFCYEDDEPVNVVTAVTLIKWYGRENFELVPFRDETKVYFDNKIPLRILEEYVESGDGLEVGGGFKIQGQGAILIEKIEGDYYNVVGLPLNKTFKGLYAEANSI
notes: full-length recombinant, expressed in E. coli
Km [5]: 13.0 ± 0.3 µM | kcat [5]: 2.2 ± 0.1 s⁻¹ | kcat/Km [5]: 170000 M⁻¹ s⁻¹ | Km [6]: 20 ± 0.4 µM | kcat [6]: 5.3 ± 0.1 s⁻¹ | kcat/Km [6]: 270000 M⁻¹ s⁻¹ | Km [7]: 29.7 ± 1.4 µM | kcat [7]: 2.6 ± 0.1 s⁻¹ | kcat/Km [7]: 88000 M⁻¹ s⁻¹

B3: STM1189 (Salmonella enterica subsp. enterica serovar Typhimurium str. LT2) (protein)
chain: MPRLILASTSPWRRALLEKLTIPFECAAPDVDETPMPGEAPRQLVLRLAQAKAQSLAARFPNHLIIGSDQICVLDGEITGKPLTEEKARQQLAKASGNIVTFYTGLALYNSASGHLQTEVEPFDVHFRHLSEAEIDDYVRKEHPLHCAGSFKSEGLGIALFERLEGRDPNTLIGLPLIALCQMLRREGFNPLQQ
notes: as for B2
Km [8]: 30.9 ± 1.2 µM | kcat [8]: 1.5 ± 0.1 s⁻¹ | kcat/Km [8]: 49000 M⁻¹ s⁻¹

B4: ASMTL-Maf (Homo sapiens) (protein)
chain: MVLCPVIGKLLHKRVVLASASPRRQEILSNAGLRFEVVPSKFKEKLDKASFATPYGYAMETAKQKALEVANRLYQKDLRAPDVVIGADTIVTVGGLILEKPVDKQDAYRMLSRLSGREHSVFTGVAIVHCSSKDHQLDTRVSEFYEETKVKFSELSEELLWEYVHSGEPMDKAGGYGIQALGGMLVESVHGDFLNVVGFPLNHFCKQLVKLYYPPRPEDLRRSVKHDSIPAADTFEDLS
notes: N-terminal Maf domain, residues 1-239, recombinant from E. coli; dimer
Km [9]: 17.4 ± 0.8 µM | kcat [9]: 0.8 ± 0.02 s⁻¹ | kcat/Km [9]: 46000 M⁻¹ s⁻¹ | Km [10]: 16.1 ± 1.5 µM | kcat [10]: 1.5 ± 0.1 s⁻¹ | kcat/Km [10]: 93000 M⁻¹ s⁻¹ | Km [11]: 10.3 ± 0.7 µM | kcat [11]: 0.3 ± 0.01 s⁻¹ | kcat/Km [11]: 29000 M⁻¹ s⁻¹ | Km [12]: 10.7 ± 0.6 µM | kcat [12]: 0.2 ± 0.01 s⁻¹ | kcat/Km [12]: 19000 M⁻¹ s⁻¹

B5: YceF (Escherichia coli K-12) (protein)
chain: MPKLILASTSPWRRALLEKLQISFECAAPEVDETPRSDESPRQLVLRLAQEKAQSLASRYPDHLIIGSDQVCVLDGEITGKPLTEENARLQLRKASGNIVTFYTGLALFNSANGHLQTEVEPFDVHFRHLSEAEIDNYVRKEHPLHCAGSFKSEGFGITLFERLEGRDPNTLVGLPLIALCQMLRREGKNPLMG
notes: full-length recombinant, expressed in E. coli; mixture of monomers and dimers
Km [13]: 32.8 ± 3.1 µM | kcat [13]: 1.2 ± 0.1 s⁻¹ | kcat/Km [13]: 37000 M⁻¹ s⁻¹

B6: YhdE (Escherichia coli K-12) (protein)
chain: MTSLYLASGSPRRQELLAQLGVTFERIVTGIEEQRQPQESAQQYVVRLAREKARAGVAQTAKDLPVLGADTIVILNGEVLEKPRDAEHAAQMLRKLSGQTHQVMTAVALADSQHILDCLVVTDVTFRTLTDEDIAGYVASDEPLDKAGAYGIQGLGGCFVRKINGSYHAVVGLPLVETYELLSNFNALREKRDKHDG
notes: full-length recombinant, expressed in E. coli; predicted monomer mass 24 kDa; mixture of dimers and tetramers
Km [14]: 44.8 ± 2.2 µM | kcat [14]: 9.2 ± 0.2 s⁻¹ | kcat/Km [14]: 210000 M⁻¹ s⁻¹ | Km [15]: 32.0 ± 2.2 µM | kcat [15]: 18.2 ± 0.7 s⁻¹ | kcat/Km [15]: 570000 M⁻¹ s⁻¹ | Km [16]: 53.0 ± 2.0 µM | kcat [16]: 15.4 ± 0.3 s⁻¹ | kcat/Km [16]: 290000 M⁻¹ s⁻¹ | Km [17]: 47.2 ± 1.5 µM | kcat [17]: 10.5 ± 0.2 s⁻¹ | kcat/Km [17]: 220000 M⁻¹ s⁻¹
